According to article PMC5941314 (2018):

Experiments:
Test in all cases: ITC 25 C, TWO LABS merged (one a row), salt differs
UBE2D2 = UBE2D2 (Homo sapiens (Human), UniProt P62837)
UBE2N = target: T1, UBE2N (Homo sapiens (Human), UniProt P61088)
T1 chain: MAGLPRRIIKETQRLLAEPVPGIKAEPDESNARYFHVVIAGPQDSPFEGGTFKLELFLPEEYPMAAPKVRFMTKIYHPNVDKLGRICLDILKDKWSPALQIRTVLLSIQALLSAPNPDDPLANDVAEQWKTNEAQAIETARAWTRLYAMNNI

UBE2L3 = UBE2L3 (Homo sapiens (Human), UniProt P68036)
Chain of UBE2L3 (P68036 whole entry): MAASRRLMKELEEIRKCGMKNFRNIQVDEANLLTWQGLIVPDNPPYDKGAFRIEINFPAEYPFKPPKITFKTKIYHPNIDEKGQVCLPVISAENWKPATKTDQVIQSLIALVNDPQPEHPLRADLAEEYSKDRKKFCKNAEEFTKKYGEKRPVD

Chain of UBE2D2 (P62837 whole entry, looked up): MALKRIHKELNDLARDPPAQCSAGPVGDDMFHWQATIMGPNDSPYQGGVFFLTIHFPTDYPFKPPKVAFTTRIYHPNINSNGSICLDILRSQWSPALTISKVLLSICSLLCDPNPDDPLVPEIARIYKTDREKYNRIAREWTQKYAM

Kd (UBE2D2): 32 µM
Kd (UBE2N): 264 µM
Kd (UBE2L3): 27.3 µM
B1: Arkadia (protein)
chain: KQDGEEGTEEDTEEKCTICLSILEEGEDVRRLPCMHLFHQVCVDQWLITNKKCPICRVDIEAQLPSES
